Reference: patent US20220339183

Molecular target: human non-mutant tau (transgene of Alz17 mice), P10636
Sequence (P10636 whole entry, looked up, change not shown): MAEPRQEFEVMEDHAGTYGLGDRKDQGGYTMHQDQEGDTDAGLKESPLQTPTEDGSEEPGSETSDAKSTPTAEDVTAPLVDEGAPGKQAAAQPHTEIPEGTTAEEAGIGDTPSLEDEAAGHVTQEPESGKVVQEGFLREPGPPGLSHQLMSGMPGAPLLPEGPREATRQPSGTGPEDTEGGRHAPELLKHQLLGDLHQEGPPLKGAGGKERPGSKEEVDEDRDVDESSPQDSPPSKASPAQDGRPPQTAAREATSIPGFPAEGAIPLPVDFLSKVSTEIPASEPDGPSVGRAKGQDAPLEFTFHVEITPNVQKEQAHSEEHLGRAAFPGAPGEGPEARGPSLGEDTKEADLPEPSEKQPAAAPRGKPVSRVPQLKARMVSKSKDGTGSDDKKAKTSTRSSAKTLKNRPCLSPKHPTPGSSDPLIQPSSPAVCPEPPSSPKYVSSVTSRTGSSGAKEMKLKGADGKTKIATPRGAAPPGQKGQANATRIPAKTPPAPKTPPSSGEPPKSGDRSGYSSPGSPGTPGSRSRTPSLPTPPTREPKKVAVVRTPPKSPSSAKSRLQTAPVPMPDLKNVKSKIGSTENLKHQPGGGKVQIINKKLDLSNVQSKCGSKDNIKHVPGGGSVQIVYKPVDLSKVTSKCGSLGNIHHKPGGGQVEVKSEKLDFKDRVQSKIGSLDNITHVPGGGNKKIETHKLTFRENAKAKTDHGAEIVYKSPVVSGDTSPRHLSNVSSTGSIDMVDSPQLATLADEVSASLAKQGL

Protein	Western blotting of synaptosome preparations from mouse brains for pT205 tau	Immunofluorescence staining of brains with antibodies to tau and tau phosphorylated at T205
endogenous mouse p38γ (protein) MSSPPPARKGFYRQEVTKTAWEVRAVYQDLQPVGSGAYGAVCSAVDSRTGNKVAIKKLYRPFQSELFAKRAYRELRLLKHMRHENVIGLLDVFTPDESLDDFTDFYLVMPFMGTDLGKLMKHETLSEDRIQFLVYQMLKGLKYIHAAGVIHRDLKPGNLAVNEDCELKILDFGLARQADSEMTGYVVTRWYRAPEVILNWMRYTQTVDIWSVGCIMAEMITGKILFKGNDHLDQLKEIMKITGTPPPEFVQKLQSAEAKNYMEGLPELEKKDFASVLTNASPQAVNLLERMLVLDAEQRVTAAEALTHPYFESLRDTEDEPKAQKYDDSFDDVDRTLEEWKRVTYKEVLSFKPPRQLGARVPKETAL	phosphorylation of tau at T205 was no longer detectable in Alz17.p38γ^-/- mice that also lacked p38γ in their post-synapses	–
constitutively active p38γ (p38γ^CA; p38γ Asp179Ala), HA-tagged (protein) MSSPPPARSGFYRQEVTKTAWEVRAVYRDLQPVGSGAYGAVCSAVDGRTGAKVAIKKLYRPFQSELFAKRAYRELRLLKHMRHENVIGLLDVFTPDETLDDFMDFYLVMPFMGTDLGKLMKHEKLGEDRIQFLVYQMLKGLRDLKPGNLAVNEDCELKILDFGLARQAASEMTGYVVTRWYRAPEVILNWMRYTQTVDIWSVGCIMAEMITGKTLFKGSDHLDQLKEIMKVTGTPPAEFVQRLQSDEAKNYMKGLPELEKKDFASILTNASPLAVNLLEKMLVLDAEQRVTAGEALAHPYFESLHDTEDEPQVQKYDDSFDDVDRTLDEWKRVTYKEVLSFKPPRQLGARVSKETPL	increased phosphorylation of tau at T205 in the post-synapse of Alz17.p38γ^CA mice as compared with Alz17.p38γ^+/+ controls	increased T205 tau phosphorylation in Alz17.p38γ^CA mice compared with Alz17 mice
